Assays:
C-36 fibrils [1] = biological target: T1, C-36 fibrils (Homo sapiens, UniProt P01009); experiment: Fibril incubation with CSF, quantitative MS/MS of bound proteins; type: binding; conditions: 4:1 w/w CSF protein:fibril
T1 construct: the 36 residue C-terminal fragment of α1-antitrypsin (C-36)

FAS4-AD aggregates [2] = system: T2, FAS4-AD aggregates; experiment: Fibril incubation with plasma, quantitative MS/MS of bound proteins; type: binding, human; conditions: 50:1 w/w plasma protein:fibril
T2 construct: aggregates of a mutated version of the FAS1-4 domain of TGFBIp
In short: (§1)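 Fibrils (20 μg) incubated 1 h at room temperature with plasma (500 μg) or CSF (40 μg) protein in PBS/5 mM EDTA; pellets washed, guanidinium-dissolved, trypsin-digested. Label-free LC-MS/MS XIC of top three peptides, normalized to total ion intensity, averaged over nine runs; fibril-free controls.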

glucagon fibrils [3] = biological target: T3, glucagon fibrils (Homo sapiens, UniProt P01275); experiment: as above; type: binding; conditions: 50:1 w/w plasma protein:fibril
T3 construct: fibrils of the peptide hormone glucagon

[4] = system: fibril systems (Ab1, Ab2, glucagon, αSN and C-36); experiment: Fibril incubation with CSF, quantitative MS/MS, span over the fibril systems; type: binding, human
Experimental: Plasma and CSF solutions were centrifuged (40,000 g, 20 min) to remove any aggregates. The protein concentration was determined using 280 nm absorbance assuming 1 Abs = 1 mg/mL. […] Control samples (without fibril material) were prepared similarly. All samples were incubated at room temperature for one hour under gentle agitation. Fibrils and fibril-bound proteins were pelleted by centrifugation at 17,000 g for 30 minutes. The supernatant (175 μL) was removed and the aggregate was re-suspended in 175 μL PBS and pelleted again before further preparation for gel analysis and spin-filter assisted digest for quantitative MS/MS. […]
(§2) The micro-purified tryptic peptides were dissolved in 0.1% formic acid, injected and trapped on an in-house packed trap column (2 cm × 100 μm I.D) with RP ReproSil-Pur C18-AQ 3 μm resin (Dr. Maisch GmbH). […] Elution from the analytical column was performed with a linear gradient from 5% to 35% phase B (90% acetonitrile with 0.1% formic acid) over 20 min for protein identification and 50 min for quantitative analysis, respectively.
All samples were analysed three times, yielding nine MS/MS experiments for each fibril for both plasma and CSF. […]

C-36 fibrils [5] = biological target: T1, C-36 fibrils; experiment: Fibril incubation with plasma, quantitative MS/MS of bound proteins; type: binding; conditions: 50:1 w/w plasma protein:fibril
Ab1 fibrils [6] = system: T4, Ab1 fibrils; experiment: as above; type: binding, human; conditions: 50:1 w/w plasma protein:fibril
T4 construct: Synthetic amyloid β peptide 1–40 was purchased from Caslo Aps (Lyngby, Denmark); purchased Caslo Aps (Lyngby, Denmark); host or cells: synthetic peptide
In short: as §1

glucagon fibrils [7] = biological target: T3, glucagon fibrils; experiment: Fibril incubation with CSF, quantitative MS/MS of bound proteins; type: binding; conditions: 4:1 w/w CSF protein:fibril
Ab2 fibrils [8] = system: T5, Ab2 fibrils; experiment: Fibril incubation with plasma, quantitative MS/MS of bound proteins; type: binding, human; conditions: 50:1 w/w plasma protein:fibril
T5 construct: Two structurally distinct fibrils of the Aβ(1–40) peptide associated with AD

FAS4-AD aggregates [9] = system: T2, FAS4-AD aggregates; experiment: Fibril incubation with CSF, quantitative MS/MS of bound proteins; type: binding, human; design: key to Identification status of CSF protein bound: FAS4-AD: *: Identified, but not quantified; —: Not identified in any of the samples; conditions: symbol cells
Ab2 fibrils [10] = system: T5, Ab2 fibrils; experiment: as above; type: binding, human; conditions: 4:1 w/w CSF protein:fibril
Ab1 fibrils [11] = system: T4, Ab1 fibrils; experiment: as above; type: binding, human; conditions: 4:1 w/w CSF protein:fibril
αSN fibrils [12] = biological target: T6, αSN fibrils (Homo sapiens, UniProt P37840); experiment: Fibril incubation with plasma, quantitative MS/MS of bound proteins; type: binding; conditions: 50:1 w/w plasma protein:fibril
In short: as §1

[13] = system: fibril systems (Ab1, Ab2, glucagon, αSN and C-36); experiment: Fibril incubation with plasma, quantitative MS/MS, span over the fibril systems; type: binding, human
Experimental: Plasma and CSF solutions were centrifuged (40,000 g, 20 min) to remove any aggregates. The protein concentration was determined using 280 nm absorbance assuming 1 Abs = 1 mg/mL. […] Control samples (without fibril material) were prepared similarly. All samples were incubated at room temperature for one hour under gentle agitation. Fibrils and fibril-bound proteins were pelleted by centrifugation at 17,000 g for 30 minutes. The supernatant (175 μL) was removed and the aggregate was re-suspended in 175 μL PBS and pelleted again before further preparation for gel analysis and spin-filter assisted digest for quantitative MS/MS.
The fibril-protein pellets were transferred to spin-filters (0.22 μm), washed twice in PBS (100 μL) and once in 1 M NaCl (100 μL). The fibrils and fibril-bound proteins were dissolved by one-hour incubation in 100 μL 6 M guanidinium chloride followed by elution from the spin-filter. […]
as §2
All samples were analysed three times, yielding nine MS/MS experiments for each fibril for both plasma and CSF. For the area-based extracted ion chromatogram (XIC) quantification, the acquisition method was set up as an information-dependent acquisition (IDA) experiment collecting up to 25 MS/MS spectra in each 1.6 sec cycle using an exclusion window of 6 sec. […]
XIC quantification was based on the average ion intensity of the three most abundant peptides for each protein. Only proteins quantified in at least four out of nine MS/MS experiments per fibril were included in the quantification. […]

αSN fibrils [14] = biological target: T6, αSN fibrils; experiment: Fibril incubation with CSF, quantitative MS/MS of bound proteins; type: binding; conditions: 4:1 w/w CSF protein:fibril

T1 sequence (P01009 383-418 limits assumed): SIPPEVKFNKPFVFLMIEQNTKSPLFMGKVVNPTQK
T3 sequence (P01275 53-81 limits assumed): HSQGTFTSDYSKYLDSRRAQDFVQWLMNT

Substance: Vitronectin: plasma/CSF protein bound to fibrils
- Relative composition of CSF proteins bound: C-36 (C-36 fibrils [1]): 0.8 ± 0.1 % of total protein
- Relative composition of plasma proteins bound: FAS4-AD (FAS4-AD aggregates [2]): 1.6 ± 0.4 % of total protein
- Relative composition of plasma proteins bound: Glucagon (glucagon fibrils [3]): 3.7 ± 0.1 % of total protein
- contribution to the fibril interactomes [4]: 0.2–3.6%
- Relative composition of plasma proteins bound: C-36 (C-36 fibrils [5]): 4.9 ± 0.5 % of total protein
- Relative composition of plasma proteins bound: Ab1 (Ab1 fibrils [6]): 17.1 ± 1.9 % of total protein
- Relative composition of CSF proteins bound: Glucagon (glucagon fibrils [7]): 0.2 ± 0.1 % of total protein
- Relative composition of plasma proteins bound: Ab2 (Ab2 fibrils [8]): 12.1 ± 2.1 % of total protein
- Identification status of CSF protein bound: FAS4-AD (FAS4-AD aggregates [9]): —
- Relative composition of CSF proteins bound: Ab2 (Ab2 fibrils [10]): 1.3 ± 0.3 % of total protein
- Relative composition of CSF proteins bound: Ab1 (Ab1 fibrils [11]): 1.1 ± 0.0 % of total protein
- Relative composition of plasma proteins bound: αSN (αSN fibrils [12]): 9.3 ± 2.2 % of total protein
- contribution to the fibril interactomes [13]: 3.7–17.1%
- Relative composition of CSF proteins bound: αSN (αSN fibrils [14]): 3.6 ± 0.2 % of total protein

From PMC6405930, “Conservation of the Amyloid Interactome Across Diverse Fibrillar Structures” (Scientific Reports, 2019)
